Measured values: patent US20230149558A1, “DUOCARMYCIN DERIVATIVE AND USE THEREOF” (The University of Tokyo, priority 2020, published 2023)
Blank lines part the entries; values can stand above or below the molecule they belong to.

What was measured:
[1] = tested on: CEACAM5-positive MKN45 cells; assay: In vitro cytotoxicity test using CEA-V2122 and anticancer agent-labeled modified biotin (Cell Counting Kit-8); assay type: cell-based, human; conditions: complex of CEA-V2122 and Compound 5, molar ratio 1:2; 1.0E-11 to 6.0E-07 final molar concentration; 48 hours; FIG. 8
Method: (§1) A cytotoxicity test was carried out using an anticancer agent-labeled modified biotin. The anticancer agent-labeled modified biotin is a compound described as Compound 5. For the assay, first, CEACAM5-positive MKN45 cells and CEACAM5-negative DLD1 cells were seeded on a 96-well plate for cell culture, so that the cell count became 5×10^3 cells/well and the amount of the culture solution became 50 μL/well, and thereafter, the cells were cultured overnight. A solution containing a complex of CEA-V2122 and a […] modified biotin was prepared by mixing CEA-V2122 and Compound 5 to a molar ratio of 1:2, and then incubating the mixture at room temperature for 10 minutes. […]
(§2) To the cells that had been cultured overnight, the complex serial dilution solutions were added in an amount of 50 μL/well to each well of the plate to the final molar concentration (1.0E-11, 3.0E-11, 9.1E-11, 2.7E-10, 8.2E-10, 2.5E-09, 7.4E-09, 2.2E-08, 6.7E-08, 2.0E-07, and 6.0E-07). […] The dosage and administration were determined by the instruction manuals included with the kit, and after the addition of the reagent, the mixture was incubated for 1.5 hours at 37° C. in a CO2 incubator. Thereafter, the absorbance at 450 nm was measured, and a mean value was then calculated, followed by background collection. […]

[2] = tested on: CEACAM5-negative DLD1 cells; assay: as above; assay type: cell-based, human; conditions: complex of CEA-V2122 and Compound 5, molar ratio 1:2; 1.0E-11 to 6.0E-07 final molar concentration; 48 hours; FIG. 8
Method: as §1, §2

HeLa S3 cells = assay: Cytotoxicity of Duocarmycin SA and Duocarmycin SA-Valine (Cell Counting Kit-8); assay type: cell-based; conditions: 1.0E-11 to 6.0E-07, 48 hours, FIG. 11
Method: In order to confirm the activities of Compound X (Duocarmycin SA) and Compound Y (Duocarmycin SA-Valin) shown in FIG. 9 and FIG. 10, cytotoxicity was confirmed using HeLa S3 cells.
The cells were seeded on a 96-well plate for cell culture, so that the cell count became 5×10^3 cells/well and the amount of the culture solution became 50 μL/well, and thereafter, the cells were cultured overnight. The concentration of Compound X or Compound Y was adjusted with a culture solution, so that the final concentration thereof became 600 nM. […]
The medium used in the overnight culture of the cells was exchanged with the prepared agent-diluted solution, and the cells were then cultured for 48 hours. […] The dosage and administration applied in the assay were determined in accordance with the instruction manuals included with the kit, and after addition of the reagent, the mixture was incubated for 1.5 hours at 37° C., in a CO2 incubator. Thereafter, the absorbance at 450 nm was measured, and a mean value was then calculated, followed by background collection. The control was set to be 100%, and the ratio of the cell growth under each condition to the control was calculated. […]

[3] = biological target: T1, Recombinant Human CEACAM-5/CD66e Protein, CF (R & D SYSTEMS) (human, UniProt P06731 35-685); assay: SPR, Biacore T200; CEACAM5 immobilized on CM5 chip, CEA-V2122 as analyte; single-cycle kinetics, bivalent analysis fit, KD=kd1/ka1
T1 construct: Bought recombinant protein, immobilized on a CM5 chip by amine coupling (279 RU); also called antigen CEACAM5
T1 sequence (looked up): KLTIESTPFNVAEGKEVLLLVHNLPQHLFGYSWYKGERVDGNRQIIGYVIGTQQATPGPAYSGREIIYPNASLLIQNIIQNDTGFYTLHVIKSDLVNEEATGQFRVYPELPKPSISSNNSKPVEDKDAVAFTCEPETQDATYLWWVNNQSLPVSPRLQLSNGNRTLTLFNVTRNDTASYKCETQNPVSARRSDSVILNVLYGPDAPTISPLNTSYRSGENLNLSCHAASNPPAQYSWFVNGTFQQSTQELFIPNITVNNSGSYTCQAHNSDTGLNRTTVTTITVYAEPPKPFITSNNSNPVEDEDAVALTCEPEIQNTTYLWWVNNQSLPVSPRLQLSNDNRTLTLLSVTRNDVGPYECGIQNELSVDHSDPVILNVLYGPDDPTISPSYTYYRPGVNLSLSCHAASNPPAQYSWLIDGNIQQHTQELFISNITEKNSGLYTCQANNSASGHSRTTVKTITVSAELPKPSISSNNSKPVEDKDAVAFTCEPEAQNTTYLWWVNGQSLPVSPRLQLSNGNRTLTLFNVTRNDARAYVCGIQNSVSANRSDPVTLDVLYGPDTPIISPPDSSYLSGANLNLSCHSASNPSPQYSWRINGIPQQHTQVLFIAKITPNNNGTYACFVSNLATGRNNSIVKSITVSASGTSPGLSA
Method: (§3) The affinity of CEA-V2122 for the antigen CEACAM5 was evaluated using a surface plasmon resonance (SPR) measuring device, Biacore T200 (GE Healthcare Life Sciences). Specifically, Recombinant Human CEACAM-5/CD66e Protein, CF (R & D SYSTEMS) was immobilized on Sensor Chip CM5 (GE Healthcare Life Sciences) using an amine-coupling kit (GE Healthcare Lite Sciences). The final amount of the ligand immobilized was 279 RU. Moreover, about the purified CEA-V2122, two-fold serial dilutions from 1E-08 to 6.25E-10 M were prepared as analytes. Regarding interaction analysis, data were obtained by single-cycle kinetics analysis.

CEACAM5 = biological target: T2, CEACAM5 (Homo sapiens, UniProt P06731); assay: Cell staining of CEACAM5-expressing cell line using FITC-labeled CEA-V2122; assay type: cell-based
T2 construct: endogenous in cells; host or cells: MKN-45 (CEACAM5-positive); DLD1 (CEACAM5-negative control)
T2 sequence (P06731 35-685 limits assumed): T1 sequence (looked up)
Method: In order to stain a CEACAM5 expression-positive cancer cell line, FITC labeling was carried out on the cell line, using 100 μg of a purified CEA-V2122 protein. Specifically, labeling was carried out using Fluorescein Labeling Kit—NH2 (DOJINDO LABORATORIES) in accordance with the dosage and administration described in the operating manual included with the kit, and the obtained product was defined to be CEA-V2122-FITC. Specific staining of the CEACAM5 expression-positive cancer cell line is as follows. That is, CEACAM5-positive human stomach cancer-derived MKN-45 cells and CEACAM5-negative human colon cancer-derived DLD1 cells were each seeded on a CELLSTAR, μClear, 96-well plate (Greiner) to a cell density of 2.0×10^4 cells/well, and thereafter, the cells were cultured overnight. Subsequently, a culture solution containing 20 nM CEA-V2122-FITC and 1 μM Hoechist was added to the 96-well plate to a concentration of 100 μL/well, and the obtained mixture was then reacted at 4° C. for 30 minutes. Thereafter, each image was taken using In Cell Analyzer 6000 (GE Healthcare Life Sciences).

[4] = biological target: T3, Recombinant Human CEACAM-5/CD66e Protein (Homo sapiens, UniProt P06731); assay: SPR (Biacore T200) affinity of CEA-V2122 for the antigen CEACAM5; assay type: binding
T3 construct: purchased R & D SYSTEMS
T3 sequence (P06731 35-676): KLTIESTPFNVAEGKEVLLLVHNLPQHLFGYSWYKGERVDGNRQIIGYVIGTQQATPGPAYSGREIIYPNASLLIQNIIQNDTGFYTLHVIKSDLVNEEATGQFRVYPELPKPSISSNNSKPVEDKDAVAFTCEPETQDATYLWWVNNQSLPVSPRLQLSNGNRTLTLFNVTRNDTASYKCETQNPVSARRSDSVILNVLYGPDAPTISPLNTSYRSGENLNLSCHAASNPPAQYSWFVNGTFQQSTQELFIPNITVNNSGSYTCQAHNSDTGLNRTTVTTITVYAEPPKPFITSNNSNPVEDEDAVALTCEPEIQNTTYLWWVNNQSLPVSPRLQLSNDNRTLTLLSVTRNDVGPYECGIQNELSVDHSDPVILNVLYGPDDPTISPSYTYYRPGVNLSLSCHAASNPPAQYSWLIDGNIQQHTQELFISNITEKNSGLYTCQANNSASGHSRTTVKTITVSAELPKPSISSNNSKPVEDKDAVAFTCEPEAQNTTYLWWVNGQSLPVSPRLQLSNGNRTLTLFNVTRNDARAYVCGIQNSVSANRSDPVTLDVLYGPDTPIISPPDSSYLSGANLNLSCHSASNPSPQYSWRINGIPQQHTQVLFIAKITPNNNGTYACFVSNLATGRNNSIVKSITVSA
Method: as §3, with “analysis. Using Biacore T200 Evaluation Software, version 2.0, the obtained data were subjected to curve fitting in a bivalent analysis mode, and the following values were obtained: ka1−3.208E+5, and kd1=3.461E-7.” for “analysis.”

[5] = CEACAM5 immobilized on Sensor Chip CM5 (279 RU), single-cycle kinetics, bivalent analysis mode

Molecule: COC(=O)c1cc2c([nH]1)C(=O)C=C1N(C(=O)c3cc4cc(OC)c(OCCNC(=O)[C@@H](NC(=O)[C@H](C)NC(=O)OCCOCCOCCn5cc(CCC(=O)NCCOCCOCCN(CC(=O)NCCCCNC(=O)CCCC[C@@H]6SC[C@@H]7NC(=N)N[C@@H]76)CC(=O)NCCCCNC(=O)CCCC[C@@H]6SC[C@@H]7NC(=N)N[C@@H]76)nn5)C(C)C)c(OC)c4[nH]3)C[C@H]3CC123 (stereo partly drawn) [Compound 5]
cell growth ratio to control [1]: suppression of the cell growth of the CEACAM5-positive MKN45 cells was confirmed in a complex concentration-dependent manner | cell growth ratio to control [2]: such a concentration-dependent effect of suppressing the cell growth of the CEACAM5-negative DLD1 cells was not confirmed

Molecule: Duocarmycin SA-Valine
effect of suppressing cell growth (ratio of cell growth to control) (HeLa S3 cells): higher effect of suppressing cell growth than Duocarmycin SA

Kd [3]: 1.08 pM
B1: CEA-V2122 (scFv)
chain: QVKLEQSGAEVVKPGASVKLSCKASGFNIKDSYMHWLRQGPGQRLEWIGWIDPENGDTEYAPKFQGKATFTTDTSANTAYLGLSSLRPEDTAVYYCNEGTPTGPYYFDYWGQGTLVTVSSGGGGSGGGGSGGGGSENVLTQSPSSMSVSVGDRVNIACSASSSVPYMHWLQQKPGKSPKLLIYLTSNLASGVPSRFSGSGSGTDYSLTISSVQPEDAATYYCQQRSSYPLTFGGGTKLEIKGGGGSGGGGAEAGITGTWSDQLGDTFIVTAGADGALTGTYENAVGGAESRYVLTGRYDSAPATDGSGTALGWTVAWKNNSKNAHSATTWSGQYVGGADAKINTQWLLTSGTTNANAWKSTLVGHDTFTKVKPSAASHHHHHH
notes: Fusion of an anti-CEACAM5 scFv with the mutant streptavidin V2122; also called scFv-V2122; CEA-V2122 fusion protein

B2: CEA-V2122-FITC: purified CEA-V2122 protein labeled using Fluorescein Labeling Kit—NH2 (protein)
chain: B1 chain
stained cell images (recognition of CEACAM5) (CEACAM5; 20 nM CEA-V2122-FITC, 4° C. for 30 minutes, CEACAM5-positive MKN-45 vs CEACAM5-negative DLD1 cells, FIG. 5): specifically recognizes CEACAM5 on the surface of the cell membrane | time-series stained MKN45 cell images (localisation after binding) (CEACAM5; MKN45 cells, time-series data, FIG. 6): the CEACAM5 stays on the surface of the cell membrane

ka1 [4, 5]: 3.208E+5 | kd1 [4, 5]: 3.461E-7 | KD=kd1/ka1 ([4]; bivalent analysis, KD=kd1/ka1): 1.078E−12
B3: CEA-V2122: scFv-type anti-CEACAM5 antibody bound with mutant streptavidin V2122 via an amino acid linker (GGGGSGGGG), SEQ ID NO: 3 (protein)
chain: B1 chain
